Sequences and labels used below:
B1: C1.505.hu11 (antibody, V domains shown)
VH: EVQLQESGPGLVKPSETLSLTCTVSGFSLTSNGVSWVRQPPGKGLEWIAAISSGGSTYYNSAFKSRLTISRDTSKNQVSLKLSSVTAADTAVYYCARHRGYYWSNWGYFDYWGQGTLVTVSS
VL: DIQLTQSPSSLSASVGDRVTITCKGSQNINNYLAWYQQKPGKAPKLLIYKTNSLQTGIPSRFSGSGSGTDYTLTISSLQPEDFATYYCCQYNDGYTFGQGTKLEIK
B2: C1.781A (antibody, V domains shown)
VH: EVQLTESGPGLVQPSQTLSLTCTVSGFSLTSNGVSWVRLPPGKGLEWIAAISSGGNIYYNSALKSRLSISRDTSKSQVFLKMNSLQTEDTAIYFCTRERGWNYPGITNGYYFDYWGQGTSVTVSS
VL: DIVLTQSPSLLSASVGDRVILSCKAGQKINNYLAWYQQKLGEAPKLLIYNANSLQTGIPSRFSGSGSGTDYTLTISSLQPEDVATYFCQQYNSWYTFGAGTKLEIK
B3: C1.779B (antibody, V domains shown)
VH: EVKLLESGPGLVQPSQTLSLTCTVSGFSLTSNGVIWVRQPPGKGLEWIAAISSGGNIYYNSGLKSRLGISRDTSKSQVFLKMNSLQTEDTAIYFCTRARGTTTAYFMDAWGQGASVTVSS
VL: ETVMTQSPSSLAVSAGETVTMNCKSSQSLLYSGNQKNYLAWYQQKPGQSPKLLIYWASTRQSGVPDRFIGSGSGTDFTLTISSVQAEDLAIYYCQQYYDTLMKMFGAGTKLEIK
B4: C1.777a (antibody, V domains shown)
VH: EVQLVESGPGLVQPSQTLSLTCTVSGFSLTNNGVSWVRQPPGKGLEWIAAISSGGSIYYNLAFKSRLSISRNTSKGHVLLKMNSLQTEDTAMYFCVRHRGYYGFNWGYFDYWGQGVMVTVSS
VL: NIQLTQSPSLLSASVGDRVTLSCKGSQNINNYLAWYQQKLGEAPKLLIYKTNSLQTGIPSRFSGSGSGTDYTLTISSLHSEDLATYYCYQYNDGYTFGAGTKLELK
B5: C1.784a (antibody, V domains shown)
VH: EVKLEESGPGLVQPSQTLSLTCTVSGFSLTNNGVSWVRQPPGKGLEWIAAMSSGGNIYYNSAFKSRLSISRDTSKSQVLLKMSSLQTEDTAMYFCGRHRGYYWYNWGFFDYWGQGASVTVSS
VL: B4 VL with Y71F, Y89C, D93N
B6: C1.773a (antibody, V domains shown)
VH: B5 VH with K3Q, E5K, N31S, M51I, N56S, D72H, S83N, G96A, W103G, F108Y
VL: B4 VL with Y89S, D93N, L105I
B7: C1.309 (antibody, V domains shown)
VH: QVQLKESGPGLVAPSQSLSITCTVSGFSLTSYDITWIRQPPGKGLEWLGVIWTGGGTNYNSAFMSRLSISKDSSKSQVFLKMNSLRTDDTAIYYCVRDLRYGYDGFWYFDVWGAGTTVTVSS
VL: DVVMTQTPLSLPVSLGDQASISCRSSQSIVHSNGNTYLEWYLQKPGQSPKLLIYKVSNRFSGVPDRFSGSGTGTDFTLKISRVEAEDLGVYYCFQGSHVPRTFGGGTKLEIK
B8: C1.786a (antibody, V domains shown)
VH: EVQLTESGLGLVQPSQTLSLTCSVSGFSLTSYNVHWVRQPTGKGLEWMGVIWTGGYTDSNSPLKSRLSITRDTSKSQVFLKMNSLQSEDIATYYCARERHTMGITKSWYFDYWGQGVMVTVSS
VL: DVQMTQSPASLSASLGETISIECLASEGIFSYLAWYQQKPGKSPQLLIYGANTLQAGVPSRFSGSGSGTQYSLKISSMQPEDEGDYFCQQSYKFPVTFGSGTKLELK
B9: C1.830B (antibody, V domains shown)
VH: EVQLKESGPGLVRPSQTLSLTCSVSGFSLTNYNVHWVRQPTGKGLEWMGIIWTGGYTDYNSDLKSRLSITRDTSKSQVFLKMNGLQTEDVATYYCARERHTMGITKSWYFDYWGQGASVTVSS
VL: B8 VL with V2I, Q3L, A34G, T53S
B10: C1.844 (antibody, V domains shown)
VH: B3 VH with K3Q, L5K, F106V
VL: B3 VL with E1D, T2I, T20N, M21I, G33V, I113L
B11: C1.851 (antibody, V domains shown)
VH: B5 VH with K3Q, E5K, V37I, M51I, D72N, S76R, S83N, G96A, W103G, F108Y
VL: NIQLTQSPSLLSASVGDRVTLSCKGSQNINNYLAWYQQKLGEAPKLLIYKTNSLQTGIPSRFSGSGSGTDYTLTISSLHSEDLATYYCCQYNNGYTFGAGTKLELKR
B12: C1.847 (antibody, V domains shown)
VH: EVQLKESGPGLVQPSQTLSLTCTVSGFSLTNNGVSWVRQPPGKGLEWIAAISSGGNIYHNSALKSRLSISRNTAQSQVLLKMNSLQTEDTAMYFCARHRGYYGYNWGYFDYWGQGTLVTVSS
VL: B4 VL with N30Y, Y89C, D93N
B13: C1.855 (antibody, V domains shown)
VH: B12 VH with N31S, S53N, H59Y, L63F, N72H, A74S, Q75K, T116A, L117S
VL: B4 VL with A34G, K45R, D93N
B14: C1.845 (antibody, V domains shown)
VH: B4 VH with H77Q, V96A, F104Y, V116A, M117S
VL: B4 VL with T69S
B15: C1.841 (antibody, V domains shown)
VH: B5 VH with K3Q, E5L, I48V, D72H, S83N, G96A, W103G, F108Y, A116V, S117M
VL: B4 VL with R18S, T20S, S22R, N30Y, S53N, H79N, Y89C, D93N
B16: C1.879A (antibody, V domains shown)
VH: EVQLTESGPGLVQPSQTLSLTCTVSGFSLTSNGVSWVRQPPGKGLEWIAAISSGGSTYYNSAFKSRLSISRHTSKSQVLLNMNSLQTEDTAMYFCARHRGYYWSNWGYFDYWGQGVMVTVSS
VL: B11 VL with N1D, L40V, C89Y
B17: C1.876 (antibody, V domains shown)
VH: B16 VH with E1Q, T5K, S31N, I51M, T57I, N81Q, A96T, W103G, S104Y
VL: B4 VL with N1D, R18S, T20S, S22R, N30Y, S53N, H79N, Y89C, D93N, L103V

Where a chain is given by its changes, count along the chain named. Some results are limits rather than exact numbers.

For one assay, the target named is T1, human ATP Binding Cassette Subfamily C Member 1 (ABCC1) (UniProt P33527 1-1531). Briefly: FACS titration on C6 cells.
In the case of B1, the Kd (as a rule, the free concentration of one partner at which half of the binding sites on the other are occupied at equilibrium, for simple one-to-one binding) came out at 158 nM.

B2 displayed a Kd of 116 nM.

B3 came in with a Kd of 83.3 nM.

Molecule B4 displayed a Kd of 41.2 nM.

B5 yielded a Kd of 38.2 nM.

For B6, binding was characterised by a dissociation constant (Kd) of 33 nM.

For B7, the Kd is 133 nM.

Another assay deals with T1, human ATP Binding Cassette Subfamily C …. In words: FACS titration on H69AR cells.
As to B8, binding was put at a Kd of 8.3 nM.

Molecule B3 showed a Kd of 10.1 nM.

B4 yielded a Kd of 4.2 nM.

As to B5, the affinity, expressed as Kd, was 7 nM.

For the molecule B6, binding was characterised by a dissociation constant (Kd) of 3.2 nM.

B7 showed a Kd of 10 nM.

The target of the next assay is T2, cynomolgus monkey ABCC1 (UniProt Q864R9 1-1531). In words: FACS titration on C6-cC1 cells.
T2 sequence (Q864R9 whole entry): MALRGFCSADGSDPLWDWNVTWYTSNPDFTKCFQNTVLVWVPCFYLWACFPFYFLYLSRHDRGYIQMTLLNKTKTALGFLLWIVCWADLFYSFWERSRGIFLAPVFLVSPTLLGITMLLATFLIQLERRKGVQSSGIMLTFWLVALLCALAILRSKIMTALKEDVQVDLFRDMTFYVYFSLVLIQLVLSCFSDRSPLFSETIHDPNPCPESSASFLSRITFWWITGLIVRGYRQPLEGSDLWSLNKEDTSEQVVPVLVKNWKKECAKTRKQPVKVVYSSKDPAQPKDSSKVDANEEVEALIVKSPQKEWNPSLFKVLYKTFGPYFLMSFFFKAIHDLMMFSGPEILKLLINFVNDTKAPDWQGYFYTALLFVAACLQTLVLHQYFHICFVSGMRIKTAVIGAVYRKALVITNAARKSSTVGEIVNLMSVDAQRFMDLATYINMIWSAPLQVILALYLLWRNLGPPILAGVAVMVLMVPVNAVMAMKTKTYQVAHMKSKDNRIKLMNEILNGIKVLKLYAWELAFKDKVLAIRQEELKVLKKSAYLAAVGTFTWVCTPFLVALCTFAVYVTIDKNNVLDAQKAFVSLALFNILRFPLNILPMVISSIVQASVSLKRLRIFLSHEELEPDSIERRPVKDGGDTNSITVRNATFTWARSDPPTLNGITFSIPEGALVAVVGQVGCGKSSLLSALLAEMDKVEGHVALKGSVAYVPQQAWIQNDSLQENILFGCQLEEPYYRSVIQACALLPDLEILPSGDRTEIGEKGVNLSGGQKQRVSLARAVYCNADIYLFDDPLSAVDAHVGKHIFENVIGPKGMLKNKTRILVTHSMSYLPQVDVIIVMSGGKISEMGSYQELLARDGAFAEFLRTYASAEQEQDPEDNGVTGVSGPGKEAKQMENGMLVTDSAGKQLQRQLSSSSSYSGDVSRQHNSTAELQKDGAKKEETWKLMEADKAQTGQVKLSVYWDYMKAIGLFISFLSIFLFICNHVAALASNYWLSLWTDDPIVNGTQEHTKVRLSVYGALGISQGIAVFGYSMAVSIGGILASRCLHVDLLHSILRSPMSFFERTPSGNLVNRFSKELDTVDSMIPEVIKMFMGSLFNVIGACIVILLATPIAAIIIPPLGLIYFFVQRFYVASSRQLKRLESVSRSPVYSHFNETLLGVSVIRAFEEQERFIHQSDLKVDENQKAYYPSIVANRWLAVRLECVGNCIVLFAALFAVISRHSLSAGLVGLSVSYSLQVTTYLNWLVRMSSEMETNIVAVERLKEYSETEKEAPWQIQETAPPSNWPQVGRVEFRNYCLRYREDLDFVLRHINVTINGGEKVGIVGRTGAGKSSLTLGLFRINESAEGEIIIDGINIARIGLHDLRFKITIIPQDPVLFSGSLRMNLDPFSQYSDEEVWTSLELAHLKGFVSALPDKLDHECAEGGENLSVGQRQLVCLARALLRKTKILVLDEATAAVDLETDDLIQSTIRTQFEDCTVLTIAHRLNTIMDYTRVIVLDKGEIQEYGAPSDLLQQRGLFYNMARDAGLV
Molecule B9 registered a Kd of 8.6 nM.

Regarding B10, the Kd worked out at 34.1 nM.

For B11, binding was characterised by a dissociation constant (Kd) of 28 nM.

Turning to B12, the affinity, expressed as Kd, was 23.3 nM.

Molecule B13 registered a Kd of 279 nM.

As for B14, binding was put at a Kd of 20.1 nM.

B15 returned a Kd of 42.3 nM.

For the next assay, the target named is T1, human ATP Binding Cassette Subfamily C …. Briefly: FACS titration on C6-hC1 cells.
Take B9: the Kd is 14.4 nM.

Molecule B10 registered a Kd of 65.1 nM.

For the molecule B11, the affinity, expressed as Kd, was 98 nM.

As for B12, binding was put at a Kd of 21.7 nM.

B13: the Kd was > 1000 nM.

B14 displayed a Kd of 21.8 nM.

In the case of B15, binding was characterised by a dissociation constant (Kd) of 103 nM.

In a further assay the target is T2, cynomolgus monkey ABCC1. Briefly: FACS titration on C6 cells; C6 cells.
B16 had a Kd of 27.2 nM.

As for B17, the Kd worked out at 3.7 nM.

Values taken from patent publication US20230272117A1 (published 2023).
